Laboratory results: the DeepSol protein solubility set

Experiment: soluble on expression in E. coli; label from the status in PepcDB or PDB records

Soluble on expression in E. coli, soluble:
MSLDRKGNPVVRWDNNWLGSNEPCEDRWATDLVRRDGAAGGAVGKAVNFWTRWYRGDSIPSESAPAEEDEAARGKHDLMLFSIMDGHAGDATSRLLQKSLHPTISMALAGLQRGNVPPRHNVWERWAGYLNPWYWLGTDTVWTPENVSKTIQNAFVQLDDNICQTPLKLLPTLSSPSTSSPTPRETLVALAQPAAAGACAISTLVDSENDDLYVAVTGDCRAVAGWEGEDGKWRCDVLSEDQMGDNPKEIERMRSEHPASERDTVIRNGRVQGGLQPTRAFGDAVYKWTNAQAAQIADAFRAQGERPRPGRPWNYTPPYVTARPEVTYRKLNAHTGEKLRFIVLATDGLWDRITSEESTLLLASYLSHPSHAPLPKSALPRREGHHHHHH, MIDWDDLECRVAREESRHQAGIGTCSLALQIGFFFDGLKRNINVDEESQRLTNVGRLFRAHSFEIKASLTSAYSSAKIYVPGLGTLLDDTPSERLDSILDARQQALPEDYADALVEQGKETAVDTVKGVFKEDWSQVLSNKLGDLVTMKSGFDATVSAAKKAATRALLEATEPIRDNPIVAELLMTGVDARVDLAKNKFKESIVLSKKENQLPIKLVQISVFGADLGAALARRFIDELLESVCTKVGNEYRYEDSKVEVIFAGLFDCTRRSSMDMGDTVATISDGAGLVARHPVVGLITTAFGAKVITFDKPLHPAVKKALHLIAAHERREYRPLLPLGPLRSGWREVLCPGISEDVTGGLLPDEQRPSAELCRVPLRQMYETARRAQVPFPNFSILDAKNPRVAQYFIMQDSRLGYSAKKYSEYYSKWVGKMNPTPEAFELHMIHYCFWLGEKLHDYKILRQNVSGSERDKLNAQWGWLIQVGRDAENVLRSRGLSRQMYRGADLVKFFNGIKRVPREADIFFNYFMHDFTSEELKFATLNEQANTMLRNNNFFVPRGIEILAVDDEAAALEHHHHHH, MKKSKRKNAQAQEAQETEVLVQEEAEELPEFPEGEPDPDLEDPDLTLEDDLLDLPEEGEGLDLEEEEEDLPIPKISTSDPVRQYLHEIGQVPLLTLEEEVELARKVEEGMEAIKKLSEITGLDPDLIREVVRAKILGSARVRHIPGLKETLDPKTVEEIDQKLKSLPKEHKRYLHIAREGEAARQHLIEANLRLVVSIAKKYTGRGLSFLDLIQEGNQGLIRAVEKFEYKRRFKFSTYATWWIRQAINRAIADQARTIRIPVHMVETINKLSRTARQLQQELGREPTYEEIAEAMGPGWDAKRVEETLKIAQEPVSLETPIGDEKDSFYGDFIPDEHLPSPVDAATQSLLSEELEKALSKLSEREAMVLKLRKGLIDGREHTLEEVGAFFGVTRERIRQIENKALRKLKYHESRTRKLRDFLD, MSEPSNNSEKVPDEVQEIRDAENTFNSIQRCTTTLKGFQKSYDELKLQRKQSLQTIRQHEADIQQLEQGIRVHTAAFQLLRRLLSEIRRPNQILQEALQARHIEIEAFDDEAERLNVLIVEERRNLVELQAARKIRKSYLIVFQKQIAQLKAENKDEEATPAQEQMTKKSLKRRRDDEDDETGPSARRAPNSVGAF

Soluble on expression in E. coli, not soluble:
RGVLEGTVRIGALPLSRTRLLPSAIAAFLAQHPGITLMTNESPYESLVADMRAGNIDFIIGALRQDEDLPDLCSEALFEEDMLILLRNNHPLLRHPDPRSQLATAQWVLPRANAPARNLLDKAFVTLGLPLPQPTVETGDAAMVR, MAHHHHHHMQLLHAQQEGMKNIRQSEASHSDENDKKERGTRSGSTTGTCSEFDVCAVYDDDDVPLAAQFVRSCPPLTDPSWAMEELLRINSHVAVWTGSALPNSVWALPGSGHCPFGSTDADFARIR, MGSDKIHHHHHHMSTDTDDDSGSHGCKAPDSDGEVAENIAIVAFERKMDTAEDIVDGIGDRYESIDILEYHGDVFEEYWGEYDCFIGLMASGIAMRKTAHLLDDKWDDPAICVVDEELTWAIPITGGHHGANQVADDLASMGAVPAMTTASEAADKQGVEKQAKALDAHVVNGDSTVATNLAVLDDELGPIERLDGPKAVLVDDDVTVLKRNKDDGIVLGCGSVAGADVEQFHAAWEQALDEADLDRDDVEFVATGTRKADEEGMLAAAEEWGLGVIAFEKETLEGFEGPTPSRSKELIGWPGIAEASAIAAGSEHDLLAEKTRYDEAVTVAIGR, MSSDEQKPEVNGYWTSVKNFSSSAATSINNATTSAWNSEFAASTSATVKDFSTSATKSIGEAATSAWNSETASTATSAISEAAKNARSWYDSSSEENEELEPSGHGFRGGIAALSRNASHYVISTVGRSSNILNIFDKTNKSSLGNPRWWIRFDRPHGNVDFHHININKAVTGLKDPHIPLTPTTAKTIGVLGKVAEKANDVAPLLTTAAMIYEAYRVGQEVHKDMNHGTTRNTIKTLAATSGTYSSGSIGAYAGSVIGTSIFPGLGTIFGAVVGGIVGGHFGGHYSHVATENALNHVKWDVVTFVCDGCDEEYTWKKYQEIEGTCCTRFNNKRQDSVDYWFKKLETNHDF, MGSDKIHHHHHHMAIEHYWDQALERSTAAQLNGALVPLSTELTRIRARQGEPFELRKLKGHPPSHLLARGPKPNPFLPWDPSLEVSEIGMRHVLILNKYPVQKGHMLLITREWAPQHGWLSYDDWEALLSVDQDTKGLWFFNSSPTAGASQPHRHLQLLRRCDDDRSCPRQEWFQSLVNSSPRESCQLTQCCAATARAQNHDAQIHYQAYLTLCEKIGLGNPAENQHPRQPYNLLLTKEWMALILRSREGIAGFSINALGFAGYLLATETSDLDWLNHHGPEALLEGVVKTIQ, MGSDKIHHHHHHMKVNLPAFERAGVMVVGDVMLDRYWYGPTCRISPEAPVPVVKVNTVEERPGGAANVAMNIASLGANARLVGLTGIDDAARALSKTLAEVNVKCDFVSVPTHPTITKLRVLSRNQQLIRLDFEEGFEGVDPQPLHERINQALGSIGALVLSDYAKGALTSVQTMISLARQAGVPVLIDPKGTDFERYRGATLLTPNLSEFEAVAGKCKSEDELVERGMKLIADYDLSALLVTRSEQGMTLLQPNKAPLHMPTQAQEVYDVTGAGDTVIGVLAATLAAGNTLEEACYFANAAAGVVVGKLGTSTVSPIELENAVRGRADTGFGVMTEEELRQAVASARKRGEKVVMTNGVFDILHAGHVSYLANARKLGDRLIVAVNSDASTKRLKGESRPVNPLEQRMIVLGALESVDWVVSFEEDTPQRLIAGILPDLLVKGGDYKPEEIAGSEEVWANGGEVMVLNFEDGCSTTNIIKKIQTESEK, MGSDKIHHHHHHMLNDANLQAADMPDTEFTLTRNGFGRLVLTLGDGTAHEGVVPVRAFPIGAPDDGIGMMSTDGHELAWIPRLDRLPAPQRAMVEEELAAREFMPEIQRIVGVSTFATPSEWTVQTDRGQTTLVLRGEEDIRRLAGTTLLISDSHGIHYLIRDLMALDRASRKILDRFL, MGDIMQQQLTQALEAYLQKLDDEARIEAINAFRQVLHHYSPFRSQPVDCVLWVKQELVAPNDYNPNNVAPPEKRLLQTSLEADGFTQPVVVIQQRPQAYTIVDGFHRHELACSKAALKKTLKGYLPVTCLTSEAASRDGLMAATIRHNRARGRHQIHAMSEIVRELTQLGWTPQKIGKELGMDADEVLRLKQISGLTEMFAGRQFSQAWTIK
